Experimental data as given in the supplement of paper PMC7125110.
± gives the standard error. For part of these data: This sample holds only a part of the variants without activity.

B1: glmS ribozyme (parent)
chain: AUAAAAGCGCCAGAACUACAGAAAUGUAGUUGACGAGGAGGAGGUUUAUCGAAUUUUCGGCGGAUGCCUCCAAA

Tests used:
Conditions in all cases: with glucosamine-6-phosphate
glucosamine-6-phosphate [1] = variants of: B1; assay: kcat; higher = faster cleavage; RNA array
Method in brief: (§1)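 Over ~14 h at 37 °C, tiles were imaged as glucosamine-6-phosphate (40 μM to 10 mM) in HEPES/KCl/Mg(OAc)2 buffer flowed across sequenced MiSeq chips. The chips carried barcoded ribozyme variants transcribed in situ by E. coli RNA polymerase and tracked with a hybridised Cy3 probe. After normalisation to baseline and to non-cleaving reference variants, one- or two-exponential decay fits of per-tile medians gave kobs. kcat and KM followed from weighted Michaelis–Menten fits across concentrations.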

glucosamine-6-phosphate [2] = variants of: B1; assay: self-cleavage kobs at 640 uM GlcN6P; higher = faster cleavage; RNA array
Method in brief: as §1

glucosamine-6-phosphate [3] = variants of: B1; assay: self-cleavage kobs at 2500 uM GlcN6P; higher = faster cleavage; RNA array
Method in brief: as §1

glucosamine-6-phosphate [4] = variants of: B1; assay: self-cleavage kobs at 10000 uM GlcN6P; higher = faster cleavage; RNA array
Method in brief: as §1

glucosamine-6-phosphate [5] = variants of: B1; assay: KM; higher = weaker cofactor use; RNA array
Method in brief: as §1

glucosamine-6-phosphate [6] = variants of: B1; assay: self-cleavage kobs at 40 uM GlcN6P; higher = faster cleavage; RNA array
Method in brief: as §1

glucosamine-6-phosphate [7] = variants of: B1; assay: self-cleavage kobs at 160 uM GlcN6P; higher = faster cleavage; RNA array
Method in brief: as §1

Variant | kcat (glucosamine-6-phosphate [1]) [s⁻¹] | self-cleavage kobs at 640 uM GlcN6P (glucosamine-6-phosphate [2]) [s⁻¹] | self-cleavage kobs at 2500 uM GlcN6P (glucosamine-6-phosphate [3]) [s⁻¹] | self-cleavage kobs at 10000 uM GlcN6P (glucosamine-6-phosphate [4]) [s⁻¹] | KM (glucosamine-6-phosphate [5]) [µM] | self-cleavage kobs at 40 uM GlcN6P (glucosamine-6-phosphate [6]) [s⁻¹] | self-cleavage kobs at 160 uM GlcN6P (glucosamine-6-phosphate [7]) [s⁻¹]
A52G U65A | 0.00041 ± 0.00018 | 6.01e-05 ± 1.2e-05 | 0.000103 ± 1.6e-05 | 0.00028 ± 4.3e-05 | – | – | –
C11A A39U | 0.000122 ± 2.3e-05 | – | 7e-05 ± 9.6e-06 | 9.43e-05 ± 1.2e-05 | – | – | –
A14U U46G | 0.0012 ± 0.00012 | 0.000293 ± 4.6e-05 | 0.000548 ± 0.0001 | 0.00104 ± 0.00012 | 2150 ± 380 | 1.98e-05 ± 6.9e-06 | 9.07e-05 ± 2.1e-05
G29U A53G | 0.00448 ± 0.0019 | 0.000805 ± 0.00012 | 0.0021 ± 0.00029 | 0.00417 ± 0.00059 | – | 0.000165 ± 2.5e-05 | 0.000262 ± 5.4e-05
U56C A64U | < 1e-05 | < 1e-05 | – | – | – | < 1e-05 | –
A12U C16A | 0.00549 ± 0.00094 | 0.00128 ± 0.00027 | 0.00417 ± 0.00091 | 0.00413 ± 0.00074 | 2210 ± 520 | 9.36e-05 ± 1.5e-05 | –
G41A U47A | 0.000635 ± 9.4e-05 | 0.000573 ± 0.00011 | 0.000608 ± 0.00018 | 0.00055 ± 0.0001 | 282 ± 86 | 7.36e-05 ± 1.6e-05 | –
G32C U45G | 2.74e-05 ± 2.5e-06 | – | – | – | 2960 ± 1000 | < 1e-05 | < 1e-05
U30C C68G | 4.61e-05 ± 1.8e-05 | 8.37e-05 ± 1.7e-05 | 8.75e-05 ± 1.7e-05 | 2.14e-05 ± 9.4e-06 | – | 3.15e-05 ± 1.2e-05 | 5.26e-05 ± 1.7e-05
U30G A42U C67G | 0.00016 ± 2.9e-05 | 8.82e-05 ± 2.3e-05 | 0.000107 ± 2.9e-05 | 0.000167 ± 4.5e-05 | – | – | –
C50A U55G | 2.27e-05 ± 2.2e-06 | – | – | – | – | – | –
G62C U69G | 1.62e-05 ± 2.9e-06 | – | – | – | – | – | –
A6U A53G | 0.000783 ± 0.00011 | 5.15e-05 ± 9e-06 | 0.000178 ± 2.2e-05 | 0.000404 ± 8.1e-05 | 8850 ± 1500 | – | –
G38U A48C A52C C71A | < 1e-05 | – | – | < 1e-05 | – | < 1e-05 | –
C10U A53G | 2.78e-05 ± 1.2e-06 | – | – | 1.69e-05 ± 7.4e-06 | 6420 ± 600 | < 1e-05 | –
G13U A53G | 0.0022 ± 0.00047 | 0.00029 ± 3.4e-05 | 0.000631 ± 9.5e-05 | 0.00168 ± 0.0002 | 4460 ± 1300 | 2.14e-05 ± 9.7e-06 | 8.17e-05 ± 1e-05
A12U G44U U47G | 1.54e-05 ± 2.4e-06 | – | – | – | – | – | –
G29C A53C | 0.000417 ± 2.8e-05 | 0.00013 ± 1.7e-05 | 0.00029 ± 4.5e-05 | 0.000356 ± 5.1e-05 | 1380 ± 180 | – | 4.1e-05 ± 1.7e-05
A42G A48U | 0.00077 ± 0.00015 | 0.000148 ± 4.3e-05 | – | 0.000576 ± 0.00013 | 3220 ± 1100 | – | –

Variant | kcat (glucosamine-6-phosphate [1]) [s⁻¹] | self-cleavage kobs at 640 uM GlcN6P (glucosamine-6-phosphate [2]) [s⁻¹] | self-cleavage kobs at 2500 uM GlcN6P (glucosamine-6-phosphate [3]) [s⁻¹] | self-cleavage kobs at 10000 uM GlcN6P (glucosamine-6-phosphate [4]) [s⁻¹] | KM (glucosamine-6-phosphate [5]) [µM] | self-cleavage kobs at 40 uM GlcN6P (glucosamine-6-phosphate [6]) [s⁻¹] | self-cleavage kobs at 160 uM GlcN6P (glucosamine-6-phosphate [7]) [s⁻¹]
U31A A39C | 0.00192 ± 0.00067 | 0.000525 ± 4.9e-05 | 0.000973 ± 0.00011 | 0.00166 ± 0.0003 | 2120 ± 1000 | 5.43e-05 ± 7.8e-06 | 0.000105 ± 1.4e-05
C8G C10A | < 1e-05 | < 1e-05 | < 1e-05 | < 1e-05 | – | < 1e-05 | < 1e-05
C16U G41C | 0.000304 ± 4.3e-05 | 0.000139 ± 3.6e-05 | 0.000244 ± 3.8e-05 | 0.000246 ± 4.5e-05 | 1030 ± 370 | – | 2.95e-05 ± 1.4e-05
U30A A33U | 5.67e-05 ± 3.2e-06 | – | – | 4.04e-05 ± 8.7e-06 | 4010 ± 660 | < 1e-05 | < 1e-05
G51A C70U | 1.48e-05 ± 3.4e-06 | – | – | – | – | – | –
G13U C68A | 1.31e-05 ± 2e-06 | – | – | – | – | – | –
A12G A14U C58A G66C | 0.000245 ± 7.5e-05 | – | – | 8.77e-05 ± 2.7e-05 | – | – | –
U46G C71U | 0.00721 ± 0.0015 | 0.00219 ± 0.00026 | 0.00497 ± 0.00059 | 0.00576 ± 0.00058 | 1750 ± 550 | 0.00018 ± 1.7e-05 | 0.000349 ± 8.8e-05
C11U G32U | 0.000176 ± 8e-05 | – | – | 3.94e-05 ± 5.4e-06 | – | – | –
U30G A52U | 6.83e-05 ± 9.4e-06 | – | 4.14e-05 ± 1.5e-05 | 5.6e-05 ± 1e-05 | – | – | –
C34U G35A C68U | 1.41e-05 ± 3.1e-06 | – | – | – | – | – | –
A15G A52C | 2.96e-05 ± 2e-06 | – | – | 2.66e-05 ± 9.9e-06 | 1090 ± 400 | < 1e-05 | –
U47C U57C | 6.99e-05 ± 7.5e-06 | – | 5.62e-05 ± 1.1e-05 | 6.24e-05 ± 9.4e-06 | – | – | –
G38U G66U | < 1e-05 | < 1e-05 | – | – | – | – | < 1e-05
C11U U31C | 0.000563 ± 7.8e-05 | 0.000179 ± 2.3e-05 | 0.000364 ± 5.9e-05 | 0.000465 ± 5.5e-05 | 1620 ± 460 | – | 2.97e-05 ± 1.5e-05
A48U U65A | 5.33e-05 ± 4.6e-06 | – | – | – | – | – | < 1e-05
A33C A36C G43A A52U | < 1e-05 | – | – | – | – | – | –
C50A G62U | < 1e-05 | – | – | < 1e-05 | – | < 1e-05 | –
